Assay results published in article PMC8852740, “Neutralization of Typhoid Toxin by Alpaca-Derived, Single-Domain Antibodies Targeting the PltB and CdtB Subunits” (Infection and Immunity, 2021).

The binders below were run against T1, PltB homopentamer, biotinylated (Salmonella enterica serovar Typhi; …, UniProt Q8Z6A3, biotinylated with EZ-link NHS-Biotin (sites not given)) (assay: not given). Conditions: not given.

Binder | binding result
T2E8 (VHH) VHH: QVQLAESGGGSVQAGGSLRLSCAASGLTFDKYAIGWFRQAPGKGREMVSCINTNYGSTYYADSVKGRFTISSDTAKNTVYLQMNSLSPEDTAVYYCAADTRSSWPSCNALDTWGQGTLVTVSS | binds
T2A3 (VHH) VHH: QVQLAESGGGLVQAGGSLRLSCAASGLTFDKYAIGWFRQAPGKERELVSCISTNYGSPYYADSVKGRFTISSDNAKNTVYLQMNSLKPEDTAVYYCAADTRSSWPSCNALDARGQGTLVTVSS | binds
T2C7 (VHH) VHH: QLQLAESGGGLVQAGGSLRLSCVVSGRTDSSYAVGWFRQAPGKEREFVAAIMWSGISTYYADSVKGRFTISLDNAKSTVYVQMNSLKPEDTAVYYCAAWKGATVTDDDPWGQGTQVTVSS | binds
T2B6 (VHH) VHH: QLQLAESGGGLVQAGDSLRLSCADSGRTFSDYAMGWFRQAPGKEREFVAAISWNGRSTYYIEAVKDRFTISRDNAKKTLYLQMNSLKPEDTAVYYCAAAREDYGSSLVKGSADYWGQGTQVTVSS | binds
T2A1 (VHH) VHH: QVQLVESGGGLVQAGGSLRLTCAGSGRTFSGDVMGWFRQAPGKEREFVAAISYNGGSTYYADSVKGRFTISRDNAKNTVYLQMDGLKPGDTAVYYCASSREDYGSSLAKGSYDYWGQGTQVTVSS | binds
T2D10 (VHH) VHH: QVQLAETGGGLVQAGGSLRLSCAASGLTSSRYAMAWFRQVPGLEREFVASMTGSGGRTFYADSVKGRFTISRDNAKNTVYLQMNNLNPEDTAVYYCAVEYRDSGTRWSNEYDYWGQGTQVTVSS | binds
T2B2 (VHH) VHH: QLQLAESGGGLVQAGGSLRLSCAASGRTFNTLHLAWFRQAPGNERDFVASISGSLGSLHYADSVKGRFTISRDNANNTVYLQMNSLKLEDTAVYYCAGAPIYDRFSSSSSSYDYWGQGTQVTVSS | binds
T2B12 (VHH) VHH: QLQLVESGGGSVQAGGSLRLSCAASGFTFGDYAIAFFRQAPGKEREGVSCISTYDGSTYYGDSVKGRFTISSDNAKNTVYLQMNSLKPEDTAVYYCAADRADCGWYYPYDYWGQGTQVTVSS | binds
T2H3 (VHH) VHH: QVQLAESGGGLVQAGGSLRLSCVASGRTFDINTMAWYRQAPGKQRDFVASSYHGGITNYADSVKGRFTMSRDNAKNTVYLQMNSLKPEDTGVYYCTWRGGGVYWGQGTQVTVSS | binds
T2E11 (VHH) VHH: QLQLVETGGGLVQPGGSLRLSCAASGFSLDYYAIGWFRQAPGKEREGVGCISSSGSTTKYADSVKGRFTISRDNAKNTVYLQMNSLKPEDTAVYYCAARNPADLNCGAYVLNGEYWGQGTQVTVPS | binds
T2A2 (VHH) VHH: QVQLAETGGGLVQPGGSLRLSCAVSGFMVNSYDIGWFRQAPGKEREGVSCISSSGGATHYVDSVKGRFTISRDNAKNMVYLQMNSLKPEDTATYYCAANRMTRCSDYHGYPFWGQGTQVTVSS | binds
T2D8 (VHH) VHH: QLQLVESGGGLVQPGGSLRLSCAASGFTLDYYAIGWFRQAPGKEREWVSCLGRSSSSTSYVADSVQGRFTISRDNAKNTVYLQMNSLKPEDTAVYYCAADLSSQISSCNALDTWGQGTLVTVSS | binds
T2H5 (VHH) VHH: QVQLVETGGGLVQAGGSLRLSCTASGFTFDEYAIGWFRQAPGKEREMILCISSVGGSTYYADSVKGRFTISSDNAKNTMYLQMSSLKPEDTAKYYCAVDVTPPHSCNALDTWGQGTLVTVSS | binds
T2A7 (VHH) VHH: QVQLVETGGGLVQTGGSLRLSCAASGFTFDDFAIGWFRQAPGKEREWVSCISSRNGSPYYADSVKGRFTISSDNAKNTVYLQMNSLKPEDTAVYYCKADTDSIVPSCNALDTWGQGTLVTVSS | binds
T2E12 (VHH) VHH: QVQLAESGGGLVQAGGSLRLSCAASGFTFDDYAVAWFRQAPGKAREMVLCISSSGGSSYYADFVKGRFTVPSNSAKNTVYLQMNSLKPEDTAKYICAVDATYPHSCNALDAWGQGTLVTVSS | binds
T2D9 (VHH) VHH: QLQLVESGGGLVQPGGSLRLSCVLSGSDLAYYNVGWFRQAPGKEREGVACTSRVSDTKYYADSVKARFTVARDNAKNTVNLQMSSLRPEDTAVYSCALLRWCTTEDSDSEGMGHWGKGTLVTVSS | binds
T2C1 (VHH) VHH: QVQLVETGGGLVQAGGSLRLSCAASGRTFSGDAMGWFRQAPGKEREFVAAISWNGGSTDYADSVKGRFTISRDAKNTVYLQMNSLKPEDTAVYYCASSREDYGSSFLRGSYDYLGQGTQVTVSS | binds
T2C5 (VHH) VHH: QVQLVETGGGLVQPGGSLRLSCATSGFTFSSTTMTWVRQAPGKGLEWLSGIYSDGRTEYADSVKGRFTISRDNAKNTLYLEMNSLKPEDTAVYFCAKGLLGAERGQGTRVTVSS | binds
T2G6 (VHH) VHH: QVQLVESGGGLVQAGGSLRLSCAASGFTFDDYAIGWFRQAPGKEREMILCINSRSGSTSYYADSVKGRFTVSVNSAKNTAYLQMNSLKPEDTAVYYCAADVTHPHSCNALDAWGQGTLVTVSS | binds
T2G7 (VHH) VHH: QVQLVESGGGSVQAGGSLRLSCAASGFTFDDYAIGWFRQAPGKEREMILCINSRAGMTSYSADSVKGRFTVSVNSAKNTAYLQMNSLKPEDTAKYYCAADVTHPHSCNALDAWGQGTLVTVSS | binds
T2H1 (VHH) VHH: QVQLVESGGGLVQAGGSLRLSCAASGFTFDDYAIGWFRQAPGKEREQILCINSNRARTSYYAESIKGRFTVSVNSAKNTVYLQMNSLKPEDTAVYYCAADVTHPHSCNALDAWGQGTLVTVSS | binds
T2D2 (VHH) VHH: QVQLAETGGGLVQPGGSLRLSCAASGFDFSRSTMSWVRQAPGKNIEWVSDINSGGGLTNYGDTVKDRFTISRDNAKNTLYLQMNSLDVEDTAVYYCVKGMWITSDQPRGQGTQVTVSS | binds
T2B4 (VHH) VHH: QVQLVETGGALVQTGGSLRLSCAVSGRSSSTQGLGWYRQAPGKEREFVATINWISGATYYSDSVKGRFSISRDNAENTVSLQMHDLKPDDTAVYYCGAGLSPIARMDYWGQGTQVTVSS | binds

Each binder was assayed against T1, PltB homopentamer, biotinylated (assay: ELISA; […] (30 min, 37°C) […]). Conditions: both partners purified.

Binder | binding result
T2G1 (VHH, also called anti-PltB VHH T2G1; source: E. coli Rosetta-gami 2(DE3)pLacI, pET32b+, purified (Ni-NTA)) VHH: QVQLAESGGGLVQAGGSLRLSCAASGLTFDKYAIGWFRQAPGKERELVSCISTNYGSTYYADSVKGRFTISTDNAKNTVYLQMNGLKPEDTAVYYCAADTRSSWPSCNALDTWGQGTLVTVSS | binds
T2F2 (VHH, also called anti-PltB VHH T2F2; source: E. coli Rosetta-gami 2(DE3)pLacI, pET32b+, purified (Ni-NTA)) VHH: QVQLAESGGGLVQAGGSLRLSCVASGRTFSSYAMGWFRRAPGKEREFVASILWSDGSAAYADSVEGRFTISRDNAKNTVHLQMNSLQPEDTAVYYCAAEARGSGTRWGNEYDYWGQGTQVTVSS | binds
T2E1 (VHH, also called anti-PltB VHH T2E1; source: E. coli Rosetta-gami 2(DE3)pLacI, pET32b+, purified (Ni-NTA)) VHH: QVQLAESGGGFVQAGGSLRLSCVESGRSFSVFAMGWFRQAPGKERELVAAISWRGDSTYYADLVKGRFTISRDNAKNAVYLQMNSLKPEDTAVYYCAADRSDYVVTHEYDYWGQGTQVTISP | binds
T2F6 (VHH, also called anti-PltB VHH T2F6; source: E. coli Rosetta-gami 2(DE3)pLacI, pET32b+, purified (Ni-NTA)) VHH: QLQLAESGGGLVQPGGSLRLSCAVSGFMVNSYDIGWFRQAPGKAREGISCINTSGDTPNYADSVKGRFTISRDNAKNMVYLQMNSLKPEDTATYFCAANRMTRCSDYNGYPYWGQGTQVIVSS | binds
T2F7 (VHH, also called anti-PltB VHH T2F7; source: E. coli Rosetta-gami 2(DE3)pLacI, pET32b+, purified (Ni-NTA)) VHH: QVQLVESGGGLVQPGGSLRLSCAASGFDFSRSTLSWVRQSPGKDFEWVSDINSGSTLTNYGDSVKGRFTTSRDNAKNTLYLQMNSLKPEDTAVYYCVKGMWITRDQPRGQGTQVTVSS | binds
T2G11 (VHH, also called anti-PltB VHH T2G11; source: E. coli Rosetta-gami 2(DE3)pLacI, pET32b+, purified (Ni-NTA)) VHH: QVQLVETGGLVQAGGSLSLSCAVSGRTFNLLHLAWFRQAPGNERDLVASISGSLGSVYYADSVRGRFTISRDAANNTVYLQMNSLKLEDTAVYYCAGAPIFDRFSSSSSSYDYWGQGTQVTVSS | binds
T2G4 (VHH, also called anti-PltB VHH T2G4; source: E. coli Rosetta-gami 2(DE3)pLacI, pET32b+, purified (Ni-NTA)) VHH: QVQLVESGGGSLRLSCAVFGRTFSGDAVGWFRQAPGKEREFVAAINWNGRSTDYADSVKGRFTISRDDTENTVYLQMNSLKPEDTAVYYCATSREDYGSSFLRGSYDYLGQGTQVTVSS | binds
T2F11 (VHH, also called anti-PltB VHH T2F11; source: E. coli Rosetta-gami 2(DE3)pLacI, pET32b+, purified (Ni-NTA)) VHH: QVQLVETGGGLVQPGGSLRLSCVLSGSDLAYYNVGWFRQAPGKEREGVACTSRVSDTKYYADSVKARFTVARDNAKNTVNLQMNSLRPEDTAVYSCALLRWCTTEGSDSEGMGHWGKGTLVTVSS | binds
T2F3 (VHH, also called anti-PltB VHH T2F3; source: E. coli Rosetta-gami 2(DE3)pLacI, pET32b+, purified (Ni-NTA)) VHH: QVQLAETGGALVQTGGSLRLSCAVSGRNSEIQGLGWYRQAPGKEREFVATINWRSGATYYDDSVKGRFSISRDNAENTVSLQMNDLKPDDTAVYYCGAGMSPIARMDYWGQGTQVTVSS | binds
